Source: paper PMC3002993

Columns and labels:
Test in all cases: co-immunoprecipitation (HA-specific IP), Western blot densitometry
[1] = target: nonstructural protein 5A (NS5A) of JFH1mut4-6 (UniProt Q99IB8); conditions: Huh7.5 cells transfected with full-length genome, harvested 72 h later; two independent experiments; read off a plot
p7 of JFH1 = p7 of JFH1 (UniProt Q99IB8); conditions: Huh7.5 cells transfected with full-length genome, harvested 72 h later; two independent experiments; read off a plot
[2] = target: envelope glycoprotein E2 of JFH1 (UniProt Q99IB8); conditions: harvested 72 h later, two independent experiments, read off a plot
[3] = target: nonstructural protein 3 (NS3) of JFH1 (UniProt Q99IB8); conditions: Huh7.5 cells transfected with full-length genome, harvested 72 h later; two independent experiments; read off a plot
E2 V341A of JFH1 = conditions: F77A-E2 genome; Huh7.5 cells, harvested 72 h later; two independent experiments; read off a plot
NS3 Q221L of JFH1 = conditions: W35F-NS3 genome; Huh7.5 cells, harvested 72 h later; two independent experiments; read off a plot

Question: Which percent of parent [1] does the source give for “HA- and Flag-tagged NS2 of JFH1mut4-6 (HAF-NS2) (from UniProt Q99IB8) CT1.h” here?
Answer: 56%

Question: What about the percent of parent (p7 of JFH1) of the same substance?
Answer: 23%

Question: And the percent of parent ([2]; Huh7.5 cells transfected with full-length genome)?
Answer: 30%

Question: What about the percent of parent ([2]; genome also carries the pseudoreversion p7-E3D (CT1.h-p7), Huh7.5 cells) of the same substance?
Answer: 84%

Question: What about the percent of parent [3] of the same substance?
Answer: 26%

Question: m1; m2 NS2:F77A; E2:V341A was tested. Which percent of parent (E2 V341A of JFH1) did it give?
Answer: 89%

Question: With m1; m4 NS2:W35F; NS3:Q221L as the substance, how does the percent of parent (NS3 Q221L of JFH1) read?
Answer: 52%
